Source: the DeepSol protein solubility set

Assay: soluble on expression in E. coli; label from the status in PepcDB or PDB records

| Sequence | soluble on expression in E. coli |
| --- | --- |
| MLLSPEQFSRLSEYAAYSRRKLKDMLSDFQQDGKFYSYLSVDGQTINIDGFRAFLIDYFGADLPSDLVDQLFLSFSKPPIKERRTSLFEDAISTVRAKFSESLSGRMAGLNIAGGSGQQTDRSQSSEPQALVCIPEDDVMGPRVANNDSQEPRIPLKPLICTLSLLEADTPENKLDVVFHVYDSDGNGFLDKSEIDGIIEQMMNVARYQQWDTIELEQVIRQMMVDIDYDNDGIVSFDEWRRGGLTNIPLLVLLGFDTEMKEDGSHVWRLRHFTKPTYCNACCSILVGWGGKQGLSCSLCKYTVHERCVRSAATNCIRTYSSRQQDKLYHHWQDANATAKCVKCKATVGVFQGKGCRWCHNYVHHRCMSALAQECDLGALVHHILPPTHIFPAFLERKTSTSLKNHNFSSHSASLLQAVSPSNDCRPLLVLVNPKSGGKQGVKILQKFEYLLNPRQVYDLSKTGPEPGLQLFSTLKNCNILVCGGDGTIGWVLESMDKMTFPHGRPPVAVLPLGTGNDLARCLRWGGGYENENLHKILEQIEKSSLIDMDRWQIKIEITENKSARRASEKGDTPPYSIINNYFSIGVDASIAHRFHVMREKFPEKFNSRMRNKLWYFELGTSETLSSSCKNLHEQIDILCDGESIDLGQDASLEGIALLNIPSIYGGSNLWGRSRKSKGRMPGLFPMKNAEKMQLQTRVQDIGDGLIELVGLESAMQMGQIKAGVRGARRLSQCSTVVIQTHKSFPMQIDGEPWMQPPCIIQITHKNQAKMLVGEFRHILELSINFFLFTAAAPRKRSSWMLLKRQSTNDDN | not soluble |
| MHHHHHHSSGVDLGTENLYFQSMNNVEKPDNDEDESEVPSLPLGLTGAFEDTSFASLCNLVNENTLKAIKEMGFTNMTEIQHKSIRPLLEGRDLLAAAKTGSGKTLAFLIPAVELIVKLRFMPRNGTGVLILSPTRELAMQTFGVLKELMTHHVHTYGLIMGGSNRSAEAQKLGNGINIIVATPGRLLDHMQNTPGFMYKNLQCLVIDEADRILDVGFEEELKQIIKLLPTRRQTMLFSATQTRKVEDLARISLKKEPLYVG | soluble |
| MGSDKIHHHHHHMQYREFGRTGVKTSLLGFGAMRLPVIGEDHSNIDEEKAIEMIRYAIDHGVNYVDTAYPYHGGNSEKVVGKALKDGYREKVFLATKSPVWQVEKHEDFERILDEQLEKLQTDHVDMYLMHALNKERWEKIKNLRFSDFFEKAKAKGKIRFAGFSFHDSYPVFKEIVDGYDWDFCQIQLNYMDVNYQAGLRGLKYAGSKGLAVVIMEPLKGGKLARLPEKVMEILRKYNKNWSPVELSFRWIGHHPEVSTILSGMSTLEQVKQNIDIMSKITPGNLTDEDMKMIEEIRKTLESFAVINCTQCGYCMPCPNGVDIPGNFRLYNETVMFEDWEGGRRTYKWLESQKSAASFCVECGECLSKCPQKLDIPNLLKKVHRELAEVK | not soluble |
| MLKLYVLVYKGEPLDYHEYRHTALYLKLPDNQSFIMHILGTQGMFEYAQIKNKDPSVVGSLAKVVPVADISEVIGSGPIQSTVAKTLVQNGPLDLDWNCQHWVGDALSKLAERKYITVAERAEAIDRMMDACLEAMDD | not soluble |
| MGSDKIHHHHHHLRIFGKEGCRMEMQRVIELDMPVNFRDLGGYQGLDGRQVKWRKIYRSAALNEMSARDRVKLANLRITVDCDLRSSREQRSYPDLLWPGVRFVNIGLYAEGDRFNQAHPFLRLFHHLPEFDDYLPKIYQQVLLNEHSEEGIKRVFEELLKLPEDQALVYHCAAGKDRTGIISILILMALGVDDKTIAEDYLLTDELYDFSIEKQHPTNEKLSQVIAKMNVTRGEGTAVKGITETIRQGWGSFDKFFTRKLGFKQADLEKFREMYLEEEEED | not soluble |
| NSAHQFHNQQEGEHYILAGYPWFKCRARDMFISLPGLTLALEEVDQFEDVMKTAEKAIRSFINDEPAGYKIYEMEHPDVLLWAVWALQQYAKETSREQCRQKYGELLKDIIEFIRQRKHENLFLHENGLLYANGTDKAITWMNSTVNGHPVIPRTGYIVEFNALWYNALRFVADLVREDGNVLLADALDAQAEVTGKSFIEVFRNEYGYLLDYVDGNMMDWSVRPNMIFAVAFDYSPLDRAQKKQVLDIATKELLTPKGLRTLSPKSGGYNPNYVGPQIQRDYAYHQGTAWPWLMGFYMEAYLRIYKMSGLSFIERQLIGLEDELTIHCISSLPELFDGNPPFKGRGAVSFAMNVAEVLRILKLLSKYY | not soluble |
| MTIVAENLTKHLSNLSKRGPHRVLVGDLDYVGLPGKIYTPAEGNGLPAVVFAHDWMQDISRYHATLRHLASWGIVVAAPNTEKGISPNHRGFAADIETSLQVLTGVKLGAGNISVAPGRLGIVGHGMGAGAAVLAAADRPQIAAVAAIYPSQVSPSADVAARNVEAAGLVLGTEENAMFDFGNAAKLALEWKGPVAYREIDRASHQTLTENTLFKRVTGLGGTNTAARERIRGVVTGFLLHQLADQKKYSGFSEADATGKKVHSYWGEELQERASLTGDSKLTLFKS | not soluble |
| MAANRVAMEEDITESVTLMVDSVSSSPMTPKTVTVKEDETHHPYAFHVSGPRNVASPNWRDLINSSWKDPNYKRTVMACFIQAAYLLELDRQENRNEQNALAPKWWIPFKYKLSQTLIDERDGSIFGAVLEWDRAAAMADLVVIRPSGAPKAVLALRGTILKSLTMRRDIEDDLRFLAWESLKGSVRFNVALEALQSVATRYGSSNVCVVGHSLGAGFALQVGKSLAKEGLFVDAHLFNPPSISVAMSLRNISEKAGVAWKRLMSMLPPKHEPLIQNSNEGQVSPSNVSSGFRNWVPSFYGSNQKPTVDLRKWVPHLYVNDSDYICCHYTDQDGVAEKREMNNKENNSPVVNTNFQAAAKLFVMSKGKQKFHEAHGLEQWWSDNLELQSAIHSSRLISQQLKSLYSIK | soluble |
| IKELKMSKDEIKREYKEMEGSPEIKSKRRQFHQEIQSRNMRENVKRSSVVVAAATHIAIGILYKRGETPLPLVTFKYTDAQVQTVRKIAEEEGVPILQRIPLARALYWDALVDHYIPAEQIEATAEVLRWLERQNIEKQHSEML | soluble |
| MTDTNTLLVTSLEEGIGKTAITLALATRAHDAGYDVGYMKPKGTRLRSAVGKTRDEDPMLARELLDLETDLHDMEPIVYSPTFIQEAIRGREDPDDLRERLQEGIETCSDGTDMLLVEGSSDLATGSIVDLTDIDIAELLDARVLLVTGYDTPSDTDEILSAAEAIGDRLDGVLFNGVTDATVDELADDVVPFLEGEGIPVHGILPRDRSLAGVTVADLARNLGADILTGDANTDVHVERFSVGAMSGSSALERFRRTRDAVVVTGGDRSEVQTAALEASGINALLLTGGFQPASAVIGQAAEKNVPVLSVQSDTRTTIDRVEEVLRTGQTRNEATVDRMRTLLDDGVDVESLLSVDLLEHHHHHH | soluble |
| MTSYKPEYLIPNLLDLVAEGEGLRIEFKRLIHSAPKIARSITAFANTSGGVILIGVDDDRRIVGIQSEKEALQVIDEAMRFHIEPKPRIEVHFEEFKRRMVLLVDIPKSPERPHFHIEPLIRRDTGKHGVERRVFIRDGSHNKAASDDRIELMLSSREPLKVAFTGRERCLLDWLNEHDRITAEEFADSAGIPMKEARRILVSLVRAGALRLDTANGDNSYTLAHRLEHHHHHH | soluble |
| KKMREEGVHEGCMEQIYRMFSQRLYKEDGSAAEVDDMNRLRLDDWELREDIQQHCRELWPQITTENLKELTDYVEYKEEFLKLFGFGVEGVDYEADVNPAVETDFIQI | not soluble |
| MTADWVVTFTFDADPSMETMDAWETQLEGFDALVSRVPGHGIDVTVYAPGDWSVFDALAKMAGEVMPVVQAKSPIAVQIISEPEHRLRAEAFTTPELMSAAEIADELGVSRQRVHQLRSTAGFPAPLADLRGGAVWDAAAVRRFAETWERKPGRPHTGTAKFAYSWAVGPAVGRSGKAPNVRWRVENPDKIRFVLRNIGDDIAEDVEIDLSRIDAITRNVPKKTVIRPGEGLNMVLIAAWGHPLPNQLYVRWAGQDEWAAVPLHPAH | soluble |
| MMIVIKTAIPDVLILEPKVFGDERGFFFESYNQQTFEELIGRKVTFVQDNHSKSKKNVLRGLHFQRGENAQGKLVRCAVGEVFDVAVDIRKESPTFGQWVGVNLSAENKRQLWIPEGFAHGFVTLSEYAEFLYKATNYYSPSSEGSILWNDEAIGIEWPFSQLPELSAKDAAAPLLDQALLTE | soluble |
| MLGDRCAPIKASGVLIGDSVLVTDVEQARSLYSCGYYGQPLDVEKPRGADFEGPLRLSLIESLYLAEKGVLEVAKPDGSSVGVEDLRTAVRGNPRFSMLYNIYRDLRERGFVVRSGLKFGSDFAVYRLGPGIDHAPFIVHAYSPEDNIDPVEIVRAGRLSHSVRKKFVFAVTRGGDVSYLMIDWFRP | soluble |
| MSLKNLDINIVSEVRRIDNGRLDIPVYFSVCGDDASQYTGTKKQMGKGASPIQSEASACMELAERFSFFSFSKNADNFLLGDYEEMRAAGYPVLDMEHLLKSVHDTHTTVAQLEKLLAGIPMQWTWATKMTGEEGEVLIPFSWFFAINEFNGPSAGNTQEEAALQGLCEIVERDVCSRINRDKLPTAKIDVETIKDPVAVELLEKFAKNNIEVYLNDFSLETGIASVGALAIDRSTFPEKSEIVYTAGTTPNPEKAIIRAITEVAQLAGDFNTGSNYIASGLPKPLSMSEVTYLTETADQVTIDEMVDISDDNIYTEVKNCLDSLKNNGFDVYMIDVCHPQLQIPALYTIIPGAHFRERSMICNAGLFCAKLLVERIEDPAEQEVKLGEMSVLEGHHHHHH | not soluble |
| MTKQLVLFCDFDGTITENDNIIAIMKQFAPPEWEALKDDILAERISVQEGVGKMFSLLPSSLKGEIIDFLRRTTRLRAGFREFVAFTKERGIPLYIVSGGIDFFVYPLLEGLIEPERIFCNGSDFSGETIRITWPHACDGECQNGCGCCKPSLLRKLARPDGYHVVIGDSITDLAVAKQADYVMARDFLLQKCQELGLPHAPFATFFDVIDALQRMEVIV | soluble |
| MAHHHHHHMHATKSGVTTLSASAGNSDVPVMSAAYEDAARQPNAVFVNVYDIMKSNSWLWSVGLGVHHAGIQVYDKEYQYGRCEEGSGVRAVEPRHSPPHIFREQFFVGQTQLSALEVRKLVARLEQCDTWQGSKYHLVKHNCIHFAQAFCEALLPPHVRVAQMRTALPSTYQSAYMEEVEVDGQQYSLPVLIPPHVSRLSNYATSYLPESALQMLDSMDNPFSTP | soluble |
| MTIYFKNGFYDDTLGGIPEGAVAVRAEEYAALLAGQAQGGQIAADSDGRPVLTPPRPSDYHEWDGKKWKISKAAAAARFAKQKTALAFRLAEKADELKNSLLAGYPQVEIDSFYRQEKEALARQADNNAPTPMLAQIAAARGVELDVLIEKVIEKSARLAVAAGAIIGKRQQLEDKLNTIETAPGLDALEKEIEEWTLNIG | not soluble |
| GPGSMDCWNTRRDSKEFQHEAVEMDSLQANCGAPNEQAFHDTLVSAAYQLRARQRDTNVSISKAEMEGLVVLTRELENFKQMMKRSEFTVEGTWRIVEDGGMVERFGQQLYAELLTRNPRLRVHFHGVDIEEQSKSLLRMVGTAVHFYQKPQLTVDMFTKAGARHRGYGVNAEVFVEMRNAFMRVFSEFVGTDVFEAVEEEWRKFWKYVLDLLVHGSESAEGERYGKMYEEKMLKTIQADFKLIMERQNKCDLRGQFVSVMYSKAIEMHEELSKFEALKDLRASARVLQAYIDIINNIHDKKLLDEYMRELGGRHTAYNVTVENLQAFTEPFLFTCRHFFEEEWNIAAESRFLWLFEYMIDGISAGMVSDINSIVNLRAPSNSVTFGLIFTDIEASTRLWSKDSKSMSLAVKSHHAMIRRLIADYGAYEVKTVGDSFIIATKDVLVAVKLSLAIQLELMRMAPIAPGFAMVDSTEGHGDPQAWDDRTLRVRIGVEHCTDATATYDTIHRRYDYYGASVNRCARIEAAACGGQILLCRESFEYLKSMPEFHNDPCPHFLRHVEIATPPPKVDSRGLDHFVVVSDVGLASFKGIAEPVHLLSLVPRCLAGRQFTEKFTKVSE | not soluble |
